# Laboratory results as given in US20250312499A1 (RADIONETICS ONCOLOGY, published 2025).
# Numbered stars: 1 amine (or outer) side, 2 acyl side, 3 side chain; on linkers, the order of the positions; unused ones are H or OH. Square brackets hold non-standard residues; d marks the D form. * marks the point of attachment. X2 = 4‑amino‑1‑((3-fluoro-4-methylbenzyl)glycyl)piperidine‑4‑carboxylic acid, Cc1ccc(CN(CC(=O)N2CCC(N[*:1])(C(=O)[*:2])CC2)[*:3])cc1F; X10 = 3‑(2-(2-(3-(4-iodophenyl)propanamido)ethoxy)ethoxy)propanoyl, O=C(CCc1ccc(I)cc1)NCCOCCOCCC(=O)*; DOTA = O=C(O)CN1CCN(CC(=O)O)CCN(CC(=O)*)CCN(CC(=O)O)CC1; Api(1-amidino) = N=C(N)N1CCC(N)(C(=O)O)CC1; 4Pal = N[C@@H](Cc1ccncc1)C(=O)O; d4Pal = N[C@H](Cc1ccncc1)C(=O)O; Ahx = NCCCCCC(=O)O; azaGly = NNC(=O)O
# Target: T1, human kisspeptin receptor (KISS1R) (human, UniProt Q969F8 1-398)
# T1 construct: whole, on cells; Assayed as crude membrane fractions of tetracycline-induced Flp-In T-Rex 293 cells expressing the receptor; also called GPR54; hKiSSR
# Assay: radioligand competition, hKISS1R membranes; legend: A is <10 nM
# Protocol: The cells are grown to 85-100% confluence on standard tissue culture dishes in Dulbecco's Modified Eagles Medium (DMEM) (Corning) supplemented with 10% FBS (Gemini), 1% penicillin-streptomycin-glutamine (Gibco), 500 μg/mL hygromycin, and 15 μg/mL blastacidin. 48 hrs prior to preparing membranes 10 μg/ml of tetracycline is added to the culture media to induce receptor expression. To prepare membranes, cells are scraped and collected in 1× Dulbecco's phosphate buffered saline (Corning) and then pelleted at 1000 RPMs. The cell pellet is reconstituted in membrane preparation buffer (20 mM HEPES, 6 mM MgCl₂ and 1 mM EGTA, protease inhibitor tablets (Pierce), pH 7.4) and placed in a cell disruption vessel (Parr Instrument company) at 1000 PSI for 30 min on ice. The pressurized contents are then released and spun down at 1000 RPMs and the supernatant is collected and further centrifuged at 15,000 RPMs to pellet the membranes. The membrane pellet is resuspended in membrane preparation buffer, snap frozen and stored at −80° C. for later use.
# Assay contents are then filtered through unifilter CF/C: microplates (PerkinElmer) pre-soaked with 0.5% BSA and washed with 9×400 μL of cold wash buffer (10 mM HEPES, 500 mM NaCl, 0.1% Tween-20, pH7.4). Assay plates are read using a Microbeta² (PerkinElmer) and Ki values for compounds are determined using a GraphPad Prism 9.3 non-linear regression analysis.
# T1 sequence (Q969F8 whole entry): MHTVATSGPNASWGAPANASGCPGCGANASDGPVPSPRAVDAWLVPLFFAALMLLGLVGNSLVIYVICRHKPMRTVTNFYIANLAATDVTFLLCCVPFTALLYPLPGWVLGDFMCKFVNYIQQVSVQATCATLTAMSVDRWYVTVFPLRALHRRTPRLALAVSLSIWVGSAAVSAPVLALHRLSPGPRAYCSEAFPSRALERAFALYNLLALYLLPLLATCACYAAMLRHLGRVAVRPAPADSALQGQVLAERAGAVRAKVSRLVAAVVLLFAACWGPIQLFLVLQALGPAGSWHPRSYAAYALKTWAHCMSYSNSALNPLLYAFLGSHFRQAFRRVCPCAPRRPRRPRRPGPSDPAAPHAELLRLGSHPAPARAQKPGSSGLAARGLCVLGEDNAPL
row,Ki [nM],Binder
1,< 10,"{DOTA-Ahx}-[dY][dW]NTF[azaGly]L[Api(1-amidino)]W-NH2 (also: nonradioactive indium(III) chelated by DOTA, also called 6-In) [In Complex of Compound 6]"
2,< 10,"{DOTA-Ahx}-[dY][dW]NTF[azaGly]L[X2]W-NH2 (also: lutetium(III) chelated by DOTA, also called 1-Lu) [Lu Complex of Compound 1]"
3,< 10,"{DOTA-Ahx}-[dY][dW]NTF[azaGly]L[X2]W-NH2 (also: nonradioactive indium(III) chelated by DOTA, also called 1-In) [In Complex of Compound 1]"
4,< 10,"{DOTA-Ahx}-[dY][dW]NTF[azaGly]L[X2][4Pal]-NH2 (also: nonradioactive indium(III) chelated by DOTA, also called 105-In) [In Complex of Compound 105]"
5,< 10,"X10-[dY]K(DOTA)NTF[azaGly]L[Api(1-amidino)]W-NH2 (also: indium(III) chelated by DOTA on Lys, also called 196-In) [In Complex of Compound 196]"
6,< 10,"{DOTA-Ahx}-[dY][dW]NTF[azaGly]L[X2]W-NH2 (also: nonradioactive gallium(III) chelated by DOTA, also called 1-Ga) [Ga Complex of Compound 1]"
7,< 10,"{DOTA}-G[dY][d4Pal]NTF[azaGly]L[X2]Y-NH2 (also: nonradioactive indium(III) chelated by DOTA, also called 193-In) [Indium complex of Compound 193]"
8,< 10,"{DOTA-Ahx}-F[azaGly]L[X2]W-NH2 (also: nonradioactive indium(III) chelated by DOTA, also called 2-In) [In Complex of Compound 2]"
